According to US20130157945A1 (NEW YORK UNIVERSITY SCHOOL OF MEDICINE, published 2013):

Legend:
[1] = target: T1, TNFR1 (as used in the surface plasmon resonance assays) (UniProt P19438 30-211, limits assumed); assay: surface plasmon resonance (SensiQ Pioneer, FastStep kinetic assay)
T1 sequence (looked up): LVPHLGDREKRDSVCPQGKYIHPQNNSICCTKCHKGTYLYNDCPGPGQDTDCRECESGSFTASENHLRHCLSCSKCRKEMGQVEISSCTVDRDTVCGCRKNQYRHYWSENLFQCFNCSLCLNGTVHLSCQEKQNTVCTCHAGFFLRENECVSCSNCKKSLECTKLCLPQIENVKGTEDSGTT

[2] = target: T2, Atsttrin (yeast two-hybrid construct in pDBleu) (human, UniProt P04386 1-147 (Saccharomyces cerevisiae entry), limits assumed); assay: yeast two-hybrid, β-galactosidase assay
T2 construct: domain: Gal4 DBD; also called ½A+P3+P4+½C+P5+½F; ½F-P3-P4-½A-P5-½C

[3] = target: T1, TNFR1 (as used in the surface plasmon …); assay: surface plasmon resonance
[4] = target: T3, TNFR2 (as used in the surface plasmon resonance assays) (UniProt P20333 23-257, limits assumed); assay: surface plasmon resonance
T3 sequence (looked up): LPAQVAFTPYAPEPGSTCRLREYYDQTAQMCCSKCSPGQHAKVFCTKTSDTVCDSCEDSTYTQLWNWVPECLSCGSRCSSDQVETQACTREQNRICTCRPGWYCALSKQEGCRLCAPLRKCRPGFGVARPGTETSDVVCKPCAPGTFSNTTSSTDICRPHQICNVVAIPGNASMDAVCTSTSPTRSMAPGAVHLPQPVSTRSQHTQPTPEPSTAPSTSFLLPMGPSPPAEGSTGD

[5] = target: T1, TNFR1 (as used in the surface plasmon …); assay: surface plasmon resonance, KD against that of TNFα/TNFR1
[6] = target: T3, TNFR2 (as used in the surface plasmon …); assay: surface plasmon resonance, KD against that of TNFα/TNFR2

B1: recombinant GEP (granulin/epithelin precursor) (ligand)
chain: TRCPDGQFCPVACCLDPGGASYSCCRPLLDKWPTTLSRHLGGPCQVDAHCSAGHSCIFTVSGTSSCCPFPEAVACGDGHHCCPRGFHCSADGRSCFQRSGNNSVGAIQCPDSQFECPDFSTCCVMVDGSWGCCPMPQASCCEDRVHCCPHGAFCDLVHTRCITPTGTHPLAKKLPAQRTNRAVALSSSVMCPDARSRCPDGSTCCELPSGKYGCCPMPNATCCSDHLHCCPQDTVCDLIQSKCLSKENATTDLLTKLPAHTVGDVKCDMEVSCPDGYTCCRLQSGAWGCCPFTQAVCCEDHIHCCPAGFTCDTQKGTCEQGPHQVPWMEKAPAHLSLPDPQALKRDVPCDNVSSCPSSDTCCQLTSGEWGCCPIPEAVCCSDHQHCCPQRYTCVAEGQCQRGSEIVAGLEKMPARRGSLSHPRDIGCDQHTSCPVGGTCCPSQGGSWACCQLPHAVCCEDRQHCCPAGYTCNVKARSCEKEVVSAQPATFLARSPHVGVKDVECGEGHFCHDNQTCCRDNRQGWACCPYAQGVCCADRRHCCPAGFRCARRGTKCLRREAPRWDAPLRDPALRQLL
notes: also called purified GEP; PGRN
Kd [1]: 1.58 nM
koff [1]: 0.000814 s⁻¹
kon [1]: 516000 M⁻¹ s⁻¹

B2: RANK (yeast two-hybrid plasmid of Example 9) (receptor, UniProt Q9Y6Q6 30-212, looked up)
chain: IAPPCTSEKHYEHLGRCCNKCEPGKYMSSKCTTTSDSVCLPCGPDEYLDSWNEEDKCLLHKVCDTGKALVAVVAGNSTTPRRCACTAGYHWSQDCECCRRNTECAPGLGAQHPLQLNKDTVCKPCLAGYFSDAFSSTDKCRPWTNCTFLGKRVEHHGTEKSDAVCSSSLPARKPPNEPHVYLP
binding result [2]: no binding

B3: FAS (yeast two-hybrid plasmid of Example 9) (receptor, UniProt P25445 26-173, looked up)
chain: QVTDINSKGLELRKTVTTVETQNLEGLHHDGQFCHKPCPPGERKARDCTVNGDEPDCVPCQEGKEYTDKAHFSSKCRRCRLCDEGHGLEVEINCTRTQNTKCRCKPNFFCNSTVCEHCDPCTKCEHGIIKECTLTSNTKCKEEGSRSN
binding result [2]: no binding

B4: Atsttrin (recombinant, released from GST-Atsttrin by factor Xa) (peptide)
chain: PQASCCEDRVHCCPHGAFCDLVHTRCITPTGTHPLAKKLPAQRTNRAVALSSSASSKENATTDLLTKLPAHTVGDVKCDMEVSCPDGYTCCRLQSGAWPWCEQGPHQVPWMEKAPAHLSLPDPQALKRDVPCDNVSSCPSSDTCCQLTSGEWGCCPIP
notes: Expressed in bacteria as GST fusion, cleaved with factor Xa; also called Antagonist of TNF/TNFR Signaling via Targeting TNF Receptors; purified Atsttrin
Kd [3]: 160 nM
Kd [4]: 85.9 nM
fold lower affinity than TNFα [5]: ~18 fold
fold higher binding affinity than TNFα [6]: ~9 fold
